Results as given in patent US20250206828A1, “ANTI-ADENOSINE RECEPTOR (A2aR) ANTIBODIES AND THE USE THEREOF” (Adept Therapeutics Inc., priority 2022, published 2025).
Positions count from the first letter of the chain named. Numbers in names are those of the source.

Key:
[1] = target: T1, human A2aR-expressing CHO cells (Homo sapiens, UniProt P29274); experiment: pH-sensitive dye (Zenon pHrodo iFL RED) based internalization assay; type: cell-based; settings: 24 hours
T1 construct: expressed in transfected cells; host or cells: CHO
T1 sequence (P29274 whole entry): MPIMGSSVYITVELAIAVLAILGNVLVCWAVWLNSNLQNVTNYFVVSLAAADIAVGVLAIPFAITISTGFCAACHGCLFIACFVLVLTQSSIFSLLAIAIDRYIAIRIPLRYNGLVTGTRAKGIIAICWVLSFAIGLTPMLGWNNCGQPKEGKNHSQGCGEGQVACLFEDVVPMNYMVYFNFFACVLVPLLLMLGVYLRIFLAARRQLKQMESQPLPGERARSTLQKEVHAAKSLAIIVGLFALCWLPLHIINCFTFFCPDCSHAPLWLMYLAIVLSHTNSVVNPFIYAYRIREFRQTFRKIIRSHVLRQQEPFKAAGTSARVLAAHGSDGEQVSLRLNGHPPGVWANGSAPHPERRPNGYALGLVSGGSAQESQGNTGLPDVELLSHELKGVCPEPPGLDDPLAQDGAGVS
From the text: The Invitrogen™ Zenon™ pHrodo™ iFL RED human IgG Labeling Reagents (Cat. Z25612) Z25612) is low-pH sensitive dye and was used to determine the internalizing properties of the exemplary anti-A2aR antibodies following manufacture's instruction. The internalization of antibodies coupled with the Zenon™ pHrodo™ iFL RED human IgG Labeling reagents increase the fluorescence signal at low pH intracellular compartment in a cell, providing a method for visualizing internalization under fluorescent microscopy.
Twenty-five microliters (25 μL) of 4× working solution of Zenon™ pHrodo™ iFL IgG Labeling Reagent were also prepared in freestyle CHO expression medium and then added to each well of a 96-well plate containing antibodies. The solutions in the 96-well plate were mixed and incubated for 5 minutes at room temperature to allow the labeling complexes to form. Afterwards, fifty microliters (50 μl) of 2×10^6/ml human A2aR-expressing CHO cells were added to each well containing labeled antibodies. Cells were then incubated with the labeling complex for 24 hours under standard cell culture conditions. Cells were analyzed under immunofluorescent microscope (Invitrogen EVOS cell imaging system M5000) to visualize the internalization of antibodies by cells. Internalization of antibody was imaged using EVOS imaging systems (Invitrogen).

[2] = test system: human PBMCs (CD4 T, CD8 T, NK cells); experiment: Restoration of IFN-γ and IL-2 production of NECA-suppressed T cells and NK cells (intracellular cytokine staining); type: cell-based; settings: NECA
Protocol: (§1) Two hundred thousand (2×10^5) human peripheral blood mononuclear cells (PBMCs) human PBMC in complete IMDM medium were aliquoted into each well in a 96-well plate and the cells in the 96-well plate were pre-incubated with antibodies or small molecule inhibitors at indicated concentration for 90 minutes, followed by addition of T cell activator anti-CD3/28 dynabeads (Gibco, Cat #11132D) at ratio of 1:4 (Beads: PBMC, v/v) and NECA (DiscoverX, Cat #92-1191, final concentration […]). Cells were cultured in an incubator at 37° C., 5% CO2 for 24 hours. Cells were then collected and stimulated with anti-CD3/28 dynabeads in the presence of GolgiPlug™ Protein Transport Inhibitor (BD Biosciences, Cat #555028) according to manufacturer's manual for 4 hours. Thereafter, cells were incubated with human TruStain FcX block (Biolegend, Cat #422302) and True-Stain monocyte blocker (Biolegend, Cat #426103) for 15 minutes according the manufacturer's manual, and cells were then stained with surface markers PE-anti-CD4 (Biolegend, Cat #300550), PerCP-cy5.5-anti-CD8 (Biolegend, Cat #301032), APC/cy7-anti-CD3 (Biolegend, Cat #300426) and PE/cy7-anti-CD56 (Biolegend, Cat #362509), PE/cy7-anti-CD56 (Biolegend, Cat #362509), BV711-anti-CD25 (Biolegend, Cat #302636) and BV605-anti-CD69 (Biolegend, Cat #31938 After wash with FACS buffer, cells were stained with BV421-anti-IFN-γ (BD Bioscience, Cat #562988) and APC anti-IL-2 (BD Bioscience, cat #551383) using intracellular cytokine staining kit (BD Biosciences, cat #555028) following manufacturer's instruction. Stained samples were analyzed on FACSAria III machine. Data were analyzed using Flowjo software.

[3] = test system: human PBMCs (CD4 and CD8 T cells); experiment: Restoration of CD25 and CD69 activation markers on NECA-suppressed CD4 and CD8 T cells; type: cell-based
Protocol: as §1

[4] = target: cynomolgus adenosine A2A receptor (A2aR) (cynomolgus); experiment: flow cytometry on PBMC, donor Cynomolgus 1, isotype control
[5] = target: T2, human adenosine A2A receptor (A2aR) (human, UniProt P29274 1-412); experiment: flow cytometry on PBMC, donor human 2, isotype control
T2 sequence (P29274 whole entry): as above

[6] = target: cynomolgus adenosine A2A receptor (A2aR) (cynomolgus); experiment: flow cytometry on PBMC, donor Cynomolgus 2, isotype control
[7] = target: T2, human adenosine A2A receptor (A2aR); experiment: flow cytometry on PBMC, donor human 1, isotype control
[8] = target: cynomolgus adenosine A2A receptor (A2aR) (cynomolgus); experiment: flow cytometry on PBMC, donor Cynomolgus 2
[9] = target: T2, human adenosine A2A receptor (A2aR); experiment: flow cytometry titration, HEK293-hA2aR cells, purified antibody
[10] = target: T2, human adenosine A2A receptor (A2aR); experiment: cell-based or functional assay
[11] = target: T2, human adenosine A2A receptor (A2aR); experiment: flow cytometry, HEK293-hA2aR cells, supernatant 1 ug/ml
[12] = target: cynomolgus adenosine A2A receptor (A2aR) (cynomolgus); experiment: flow cytometry on PBMC, donor Cynomolgus 1
[13] = target: T2, human adenosine A2A receptor (A2aR); experiment: cell-based or functional assay; remark: listed apart in the source
[14] = target: T2, human adenosine A2A receptor (A2aR); experiment: cell-based or functional assay; remark: listed apart in the source
[15] = target: T2, human adenosine A2A receptor (A2aR); experiment: flow cytometry, HEK293-hA2aR cells, supernatant 1 ug/ml, average of quadruplicate
[16] = target: T2, human adenosine A2A receptor (A2aR); experiment: flow cytometry, HEK293-hA2aR cells, supernatant 1 ug/ml, average of triplicate

Cc1ccc(-c2nc(N)nc3c2nnn3Cc2cccc(CO[C@H]3CCOC3)n2)o1 [CPI-444]
induction of internalization (pHrodo fluorescence microscopy, FIG. 3) [1]: did not induce internalization
% of cells IFNγ+, CD4 T cells ([2]; test substance 2 μg/ml): 3.66%
% of cells IFNγ+, CD8 T cells ([2]; test substance 2 μg/ml): 11.6%
% of cells IFNγ+, NK cells ([2]; test substance 2 μg/ml): 15.1%
% of cells IL-2+, CD4 T cells ([2]; test substance 2 μg/ml): 12.7%
% of cells IL-2+, CD8 T cells ([2]; test substance 2 μg/ml): 3.05%
% of cells CD25+, CD4 T cells ([3]; test substance 2 μg/ml): 62.9%
% of cells CD25+, CD8 T cells ([3]; test substance 2 μg/ml): 35.9%
% of cells CD69+, CD4 T cells ([3]; test substance 2 μg/ml): 52.3%
% of cells CD69+, CD8 T cells ([3]; test substance 2 μg/ml): 52.3%

Cc1c(C#N)cccc1-c1cc(-c2cn(Cc3cccc(C(C)(C)O)n3)nn2)nc(N)n1 [AB928]
induction of internalization (pHrodo fluorescence microscopy, FIG. 3) [1]: did not induce internalization
% of cells IFNγ+, CD4 T cells ([2]; test substance 1 μg/ml): 4.07%
% of cells IFNγ+, CD8 T cells ([2]; test substance 1 μg/ml): 14.4%
% of cells IFNγ+, NK cells ([2]; test substance 1 μg/ml): 15%
% of cells IL-2+, CD4 T cells ([2]; test substance 1 μg/ml): 13.1%
% of cells IL-2+, CD8 T cells ([2]; test substance 1 μg/ml): 3.15%
% of cells CD25+, CD4 T cells ([3]; test substance 1 μg/ml): 59.7%
% of cells CD25+, CD8 T cells ([3]; test substance 1 μg/ml): 32.7%
% of cells CD69+, CD4 T cells ([3]; test substance 1 μg/ml): 57.6%
% of cells CD69+, CD8 T cells ([3]; test substance 1 μg/ml): 55.3%

Anti-HEL isotype control (BioIntron) (antibody)
% of A2aR+ CD4+ T cells [4]: 0.086%
% of A2aR+ CD8+ T cells [4]: 0.009%
% of A2aR+ NK cells [4]: 0.46%
% of A2aR+ NKT cells [4]: 0.22%
% of A2aR+ CD4+ T cells [5]: 0.012%
% of A2aR+ CD8+ T cells [5]: 0.002%
% of A2aR+ NK cells [5]: 0.029%
% of A2aR+ NKT cells [5]: 0.058%
% of A2aR+ CD4+ T cells [6]: 0.099%
% of A2aR+ CD8+ T cells [6]: 0.007%
% of A2aR+ NK cells [6]: 0.42%
% of A2aR+ NKT cells [6]: 0.045%
% of A2aR+ CD4+ T cells [7]: 0.083%
% of A2aR+ CD8+ T cells [7]: 0.005%
% of A2aR+ NK cells [7]: 0.21%
% of A2aR+ NKT cells [7]: 0.11%

B1: Hu3F6-H3/Hu3F6-L5 (antibody, human IgG1, V domains shown)
VH: EVQLVQSGAEVKKPGASVKVSCKTSGFAFTSYWMNWVRQAPGQGLEWIGRIDPSDSEAHYHHKFWGRATLTVDTSSSTVYMELSSLRSEDTAVYYCLRSLYGKGDYWGHGTTVTVSS
VL: DVVMTQTPLSLSVTPGQPASISCRSSQSLVHRNGNTYLEWYLQKPGQSPQLLIYKVSNRFSGVPDRFSGSGSGTDFTLKISRVEAEDVGVYYCYQGSHVPLTFGGGTKVEIK
notes: Human IgG1 FES (L234F, L235E, P331S) and human Ig kappa constant domains; also called Hu3F6 VH3/VL5; Hu3F6-VH3/VL5
% of A2aR+ CD4+ T cells [8]: 1.2%
% of A2aR+ CD8+ T cells [8]: 0.11%
% of A2aR+ NK cells [8]: 2.07%
% of A2aR+ NKT cells [8]: 0.45%
EC50 [9]: 0.57 nM
IC50 of blocking activity, cAMP-Glo, 1.25 uM NECA, HEK293-hA2aR cells, purified antibody [10]: 0.8 nM
IC50 of blocking activity, cAMP-Glo, 5 uM Adenosine, HEK293-hA2aR cells, purified antibody [10]: 0.6 nM
MFI [11]: 1900 MFI
% of A2aR+ CD4+ T cells [12]: 1.65%
% of A2aR+ CD8+ T cells [12]: 0.05%
% of A2aR+ NK cells [12]: 6.52%
% of A2aR+ NKT cells [12]: 1.06%
IC50 of blocking activity, cAMP-Glo, 300 nM NECA, HEK293-hA2aR cells, supernatant [13]: 5.3 nM

B2: Hu3F6-H3/Hu3F6-L3 (antibody, human IgG1, V domains shown)
VH: B1 VH
VL: B1 VL with T7S, S12P, P15L, L42Q, K44R, Q50R
notes: Human IgG1 FES (L234F, L235E, P331S) and human Ig kappa constant domains; also called Hu3F6 VH3/VL3
EC50 [9]: 0.64 nM
MFI [11]: 1930 MFI
IC50 of blocking activity, cAMP-Glo, 300 nM NECA, HEK293-hA2aR cells, supernatant [13]: 2 nM

B3: Hu3F6-H5/Hu3F6-L4 (antibody, human IgG1, V domains shown)
VH: B1 VH with H61A, T74K
VL: B1 VL with V2I
notes: Human IgG1 FES (L234F, L235E, P331S) and human Ig kappa constant domains; also called Hu3F6 VH5/VL4
EC50 [9]: 0.52 nM
MFI [11]: 1920 MFI
IC50 of blocking activity, cAMP-Glo, 300 nM NECA, HEK293-hA2aR cells, supernatant [13]: 7.8 nM

B4: Hu3F6-H5/Hu3F6-L3 (antibody, human IgG1, V domains shown)
VH: B1 VH with H61A, T74K
VL: B1 VL with T7S, S12P, P15L, L42Q, K44R, Q50R
notes: Human IgG1 FES (L234F, L235E, P331S) and human Ig kappa constant domains; also called Hu3F6 VH5/VL3
EC50 [9]: 0.5 nM
MFI [11]: 2090 MFI
IC50 of blocking activity, cAMP-Glo, 300 nM NECA, HEK293-hA2aR cells, supernatant [13]: 1.3 nM

B5: Hu3F6-H3/Hu3F6-L4 (antibody, human IgG1, V domains shown)
VH: B1 VH
VL: B1 VL with V2I
notes: Human IgG1 FES (L234F, L235E, P331S) and human Ig kappa constant domains; also called Hu3F6 VH3/VL4
EC50 [9]: 0.68 nM
MFI [11]: 1840 MFI
IC50 of blocking activity, cAMP-Glo, 300 nM NECA, HEK293-hA2aR cells, supernatant [13]: 19.5 nM

B6: Hu3F6-H5/Hu3F6-L5 (antibody, human IgG1, V domains shown)
VH: B1 VH with H61A, T74K
VL: B1 VL
notes: Human IgG1 FES (L234F, L235E, P331S) and human Ig kappa constant domains; also called Hu3F6 VH5/VL5; Hu3F6-VH5/VL5
% of A2aR+ CD4+ T cells [8]: 10.6%
% of A2aR+ CD8+ T cells [8]: 0.41%
% of A2aR+ NK cells [8]: 2.92%
% of A2aR+ NKT cells [8]: 4.28%
EC50 [9]: 0.59 nM
IC50 of blocking activity, cAMP-Glo, 1.25 uM NECA, HEK293-hA2aR cells, purified antibody [10]: 0.6 nM
IC50 of blocking activity, cAMP-Glo, 5 uM Adenosine, HEK293-hA2aR cells, purified antibody [10]: 0.8 nM
MFI [11]: 1850 MFI
% of A2aR+ CD4+ T cells [12]: 4.76%
% of A2aR+ CD8+ T cells [12]: 0.15%
% of A2aR+ NK cells [12]: 5.71%
% of A2aR+ NKT cells [12]: 4.14%
IC50 of blocking activity, cAMP-Glo, 300 nM NECA, HEK293-hA2aR cells, supernatant [13]: 0.9 nM

B7: 3F8-12E9 (antibody, from another filing, V domains shown)
VH: QVQLQQPGTELVKPGAPVKLSCKASGFTFTRYWMNWVKQRPGRGLEWIGRIDPSDSETHYNHKFWGKATLTVDKSSSTAYIQLNSLTSEDSAVYYCLRSLYGKGDYWGQGTTLTVSS
VL: DVLMTQTPLSLSVGLGDQASISCRSSQSIVHSNGNTYLEWYLQRPGQSPKLLIYKVSNRFSGVPDRFSGSGSGTDFTLKISRVEAEDLGVYYCYQGSHVPLTFGSGTKLEIK
IC50 of blocking activity, cAMP-Glo, 300 nM NECA, HEK293-hA2aR cells, supernatant (average of triplicate) [14]: 1 nM
MFI [15]: 1920 MFI
EC50 [9]: 0.48 nM

B8: 1B5-3D7 (antibody, from another filing, V domains shown)
VH: B7 VH with A24T, Y32F, K38R, S54Y, H59Q, G66D, K67R, A79V, N84S, L97G
VL: B7 VL with T7S, S12P, G14S, D75Y, K79R, V90I, Y94F, K108T, I111L
MFI [16]: 1960 MFI
